Several values for one entry are separate records, joined by “and”; a condition that tells them apart may be missing. Identical values can stand only once.
B1: KB001 parental mouse Fab FASEBA variant VH G99F (Fab, V domains shown)
VH: EVQLKQSGPGLVAPSQSLSITCTVSGFSLSIYSVHWVRQPPGKGLEWLGMIWGGGSSDYNSALKSRLSISKDNSKSQVFLKMNSLQTDDTAMYYCARNFNFYAMDYWGQGTSVTVSS
VL: QIVLTQSPAIMSASLGERVTMTCTASSSVSSSFLHWYQQKPGSSPQLWIYSTSNLASGVPARFSGSGSGTSYSLTISSMEAEDAATYYCHQYHHSPYIYTFGGGTKLEIK
B2: KB001 parental mouse Fab FASEBA variant VH N100I (Fab, V domains shown)
VH: EVQLKQSGPGLVAPSQSLSITCTVSGFSLSIYSVHWVRQPPGKGLEWLGMIWGGGSSDYNSALKSRLSISKDNSKSQVFLKMNSLQTDDTAMYYCARNGIFYAMDYWGQGTSVTVSS
VL: QIVLTQSPAIMSASLGERVTMTCTASSSVSSSFLHWYQQKPGSSPQLWIYSTSNLASGVPARFSGSGSGTSYSLTISSMEAEDAATYYCHQYHHSPYIYTFGGGTKLEIK
B3: KB001 parental mouse Fab FASEBA variant VH N100G (Fab, V domains shown)
VH: EVQLKQSGPGLVAPSQSLSITCTVSGFSLSIYSVHWVRQPPGKGLEWLGMIWGGGSSDYNSALKSRLSISKDNSKSQVFLKMNSLQTDDTAMYYCARNGGFYAMDYWGQGTSVTVSS
VL: QIVLTQSPAIMSASLGERVTMTCTASSSVSSSFLHWYQQKPGSSPQLWIYSTSNLASGVPARFSGSGSGTSYSLTISSMEAEDAATYYCHQYHHSPYIYTFGGGTKLEIK
B4: KB001 parental mouse Fab FASEBA variant VH N100S (Fab, V domains shown)
VH: EVQLKQSGPGLVAPSQSLSITCTVSGFSLSIYSVHWVRQPPGKGLEWLGMIWGGGSSDYNSALKSRLSISKDNSKSQVFLKMNSLQTDDTAMYYCARNGSFYAMDYWGQGTSVTVSS
VL: QIVLTQSPAIMSASLGERVTMTCTASSSVSSSFLHWYQQKPGSSPQLWIYSTSNLASGVPARFSGSGSGTSYSLTISSMEAEDAATYYCHQYHHSPYIYTFGGGTKLEIK
B5: KB001 parental mouse Fab FASEBA variant VH N100R (Fab, V domains shown)
VH: EVQLKQSGPGLVAPSQSLSITCTVSGFSLSIYSVHWVRQPPGKGLEWLGMIWGGGSSDYNSALKSRLSISKDNSKSQVFLKMNSLQTDDTAMYYCARNGRFYAMDYWGQGTSVTVSS
VL: QIVLTQSPAIMSASLGERVTMTCTASSSVSSSFLHWYQQKPGSSPQLWIYSTSNLASGVPARFSGSGSGTSYSLTISSMEAEDAATYYCHQYHHSPYIYTFGGGTKLEIK
B6: KB001 parental mouse Fab FASEBA variant VH N100P (Fab, V domains shown)
VH: EVQLKQSGPGLVAPSQSLSITCTVSGFSLSIYSVHWVRQPPGKGLEWLGMIWGGGSSDYNSALKSRLSISKDNSKSQVFLKMNSLQTDDTAMYYCARNGPFYAMDYWGQGTSVTVSS
VL: QIVLTQSPAIMSASLGERVTMTCTASSSVSSSFLHWYQQKPGSSPQLWIYSTSNLASGVPARFSGSGSGTSYSLTISSMEAEDAATYYCHQYHHSPYIYTFGGGTKLEIK
B7: KB001 parental mouse Fab FASEBA variant VH G99S (Fab, V domains shown)
VH: EVQLKQSGPGLVAPSQSLSITCTVSGFSLSIYSVHWVRQPPGKGLEWLGMIWGGGSSDYNSALKSRLSISKDNSKSQVFLKMNSLQTDDTAMYYCARNSNFYAMDYWGQGTSVTVSS
VL: QIVLTQSPAIMSASLGERVTMTCTASSSVSSSFLHWYQQKPGSSPQLWIYSTSNLASGVPARFSGSGSGTSYSLTISSMEAEDAATYYCHQYHHSPYIYTFGGGTKLEIK
B8: KB001 parental mouse Fab FASEBA variant VH N100C (Fab, V domains shown)
VH: EVQLKQSGPGLVAPSQSLSITCTVSGFSLSIYSVHWVRQPPGKGLEWLGMIWGGGSSDYNSALKSRLSISKDNSKSQVFLKMNSLQTDDTAMYYCARNGCFYAMDYWGQGTSVTVSS
VL: QIVLTQSPAIMSASLGERVTMTCTASSSVSSSFLHWYQQKPGSSPQLWIYSTSNLASGVPARFSGSGSGTSYSLTISSMEAEDAATYYCHQYHHSPYIYTFGGGTKLEIK
B9: KB001 parental mouse Fab FASEBA variant VH G99Y (Fab, V domains shown)
VH: EVQLKQSGPGLVAPSQSLSITCTVSGFSLSIYSVHWVRQPPGKGLEWLGMIWGGGSSDYNSALKSRLSISKDNSKSQVFLKMNSLQTDDTAMYYCARNYNFYAMDYWGQGTSVTVSS
VL: QIVLTQSPAIMSASLGERVTMTCTASSSVSSSFLHWYQQKPGSSPQLWIYSTSNLASGVPARFSGSGSGTSYSLTISSMEAEDAATYYCHQYHHSPYIYTFGGGTKLEIK
B10: KB001 parental mouse Fab FASEBA variant VH N100F (Fab, V domains shown)
VH: EVQLKQSGPGLVAPSQSLSITCTVSGFSLSIYSVHWVRQPPGKGLEWLGMIWGGGSSDYNSALKSRLSISKDNSKSQVFLKMNSLQTDDTAMYYCARNGFFYAMDYWGQGTSVTVSS
VL: QIVLTQSPAIMSASLGERVTMTCTASSSVSSSFLHWYQQKPGSSPQLWIYSTSNLASGVPARFSGSGSGTSYSLTISSMEAEDAATYYCHQYHHSPYIYTFGGGTKLEIK
B11: KB001 parental mouse Fab FASEBA variant VH N100A (Fab, V domains shown)
VH: EVQLKQSGPGLVAPSQSLSITCTVSGFSLSIYSVHWVRQPPGKGLEWLGMIWGGGSSDYNSALKSRLSISKDNSKSQVFLKMNSLQTDDTAMYYCARNGAFYAMDYWGQGTSVTVSS
VL: QIVLTQSPAIMSASLGERVTMTCTASSSVSSSFLHWYQQKPGSSPQLWIYSTSNLASGVPARFSGSGSGTSYSLTISSMEAEDAATYYCHQYHHSPYIYTFGGGTKLEIK
B12: KB001 parental mouse Fab FASEBA variant VH G99C (Fab, V domains shown)
VH: EVQLKQSGPGLVAPSQSLSITCTVSGFSLSIYSVHWVRQPPGKGLEWLGMIWGGGSSDYNSALKSRLSISKDNSKSQVFLKMNSLQTDDTAMYYCARNCNFYAMDYWGQGTSVTVSS
VL: QIVLTQSPAIMSASLGERVTMTCTASSSVSSSFLHWYQQKPGSSPQLWIYSTSNLASGVPARFSGSGSGTSYSLTISSMEAEDAATYYCHQYHHSPYIYTFGGGTKLEIK
B13: KB001 parental mouse Fab FASEBA variant VH N100Q (Fab, V domains shown)
VH: EVQLKQSGPGLVAPSQSLSITCTVSGFSLSIYSVHWVRQPPGKGLEWLGMIWGGGSSDYNSALKSRLSISKDNSKSQVFLKMNSLQTDDTAMYYCARNGQFYAMDYWGQGTSVTVSS
VL: QIVLTQSPAIMSASLGERVTMTCTASSSVSSSFLHWYQQKPGSSPQLWIYSTSNLASGVPARFSGSGSGTSYSLTISSMEAEDAATYYCHQYHHSPYIYTFGGGTKLEIK
B14: KB001 parental mouse Fab FASEBA variant VH G99N (Fab, V domains shown)
VH: EVQLKQSGPGLVAPSQSLSITCTVSGFSLSIYSVHWVRQPPGKGLEWLGMIWGGGSSDYNSALKSRLSISKDNSKSQVFLKMNSLQTDDTAMYYCARNNNFYAMDYWGQGTSVTVSS
VL: QIVLTQSPAIMSASLGERVTMTCTASSSVSSSFLHWYQQKPGSSPQLWIYSTSNLASGVPARFSGSGSGTSYSLTISSMEAEDAATYYCHQYHHSPYIYTFGGGTKLEIK
B15: KB001 parental mouse Fab FASEBA variant VH N100T (Fab, V domains shown)
VH: EVQLKQSGPGLVAPSQSLSITCTVSGFSLSIYSVHWVRQPPGKGLEWLGMIWGGGSSDYNSALKSRLSISKDNSKSQVFLKMNSLQTDDTAMYYCARNGTFYAMDYWGQGTSVTVSS
VL: QIVLTQSPAIMSASLGERVTMTCTASSSVSSSFLHWYQQKPGSSPQLWIYSTSNLASGVPARFSGSGSGTSYSLTISSMEAEDAATYYCHQYHHSPYIYTFGGGTKLEIK
B16: KB001 parental mouse Fab FASEBA variant VH N100L (Fab, V domains shown)
VH: EVQLKQSGPGLVAPSQSLSITCTVSGFSLSIYSVHWVRQPPGKGLEWLGMIWGGGSSDYNSALKSRLSISKDNSKSQVFLKMNSLQTDDTAMYYCARNGLFYAMDYWGQGTSVTVSS
VL: QIVLTQSPAIMSASLGERVTMTCTASSSVSSSFLHWYQQKPGSSPQLWIYSTSNLASGVPARFSGSGSGTSYSLTISSMEAEDAATYYCHQYHHSPYIYTFGGGTKLEIK
B17: KB001 parental mouse Fab FASEBA variant VH N100K (Fab, V domains shown)
VH: EVQLKQSGPGLVAPSQSLSITCTVSGFSLSIYSVHWVRQPPGKGLEWLGMIWGGGSSDYNSALKSRLSISKDNSKSQVFLKMNSLQTDDTAMYYCARNGKFYAMDYWGQGTSVTVSS
VL: QIVLTQSPAIMSASLGERVTMTCTASSSVSSSFLHWYQQKPGSSPQLWIYSTSNLASGVPARFSGSGSGTSYSLTISSMEAEDAATYYCHQYHHSPYIYTFGGGTKLEIK
B18: KB001 parental mouse Fab FASEBA variant VH N100E (Fab, V domains shown)
VH: EVQLKQSGPGLVAPSQSLSITCTVSGFSLSIYSVHWVRQPPGKGLEWLGMIWGGGSSDYNSALKSRLSISKDNSKSQVFLKMNSLQTDDTAMYYCARNGEFYAMDYWGQGTSVTVSS
VL: QIVLTQSPAIMSASLGERVTMTCTASSSVSSSFLHWYQQKPGSSPQLWIYSTSNLASGVPARFSGSGSGTSYSLTISSMEAEDAATYYCHQYHHSPYIYTFGGGTKLEIK
B19: KB001 parental mouse Fab FASEBA variant VH N100Y (Fab, V domains shown)
VH: EVQLKQSGPGLVAPSQSLSITCTVSGFSLSIYSVHWVRQPPGKGLEWLGMIWGGGSSDYNSALKSRLSISKDNSKSQVFLKMNSLQTDDTAMYYCARNGYFYAMDYWGQGTSVTVSS
VL: QIVLTQSPAIMSASLGERVTMTCTASSSVSSSFLHWYQQKPGSSPQLWIYSTSNLASGVPARFSGSGSGTSYSLTISSMEAEDAATYYCHQYHHSPYIYTFGGGTKLEIK
B20: KB001 parental mouse Fab FASEBA variant VH G99A (Fab, V domains shown)
VH: EVQLKQSGPGLVAPSQSLSITCTVSGFSLSIYSVHWVRQPPGKGLEWLGMIWGGGSSDYNSALKSRLSISKDNSKSQVFLKMNSLQTDDTAMYYCARNANFYAMDYWGQGTSVTVSS
VL: QIVLTQSPAIMSASLGERVTMTCTASSSVSSSFLHWYQQKPGSSPQLWIYSTSNLASGVPARFSGSGSGTSYSLTISSMEAEDAATYYCHQYHHSPYIYTFGGGTKLEIK

What was measured:
[1] = biological target: HRgpA-6H (Porphyromonas gingivalis) (UniProt P28784); experiment: ELISA, FASEBA screening, coated HRgpA-6H 0.0625 ug/ml
[2] = biological target: HRgpA-6H (Porphyromonas gingivalis) (UniProt P28784); experiment: ELISA, FASEBA screening, coated HRgpA-6H; variant OD over parental WT Fab OD

Chain of UniProt P28784 (P28784 228-860): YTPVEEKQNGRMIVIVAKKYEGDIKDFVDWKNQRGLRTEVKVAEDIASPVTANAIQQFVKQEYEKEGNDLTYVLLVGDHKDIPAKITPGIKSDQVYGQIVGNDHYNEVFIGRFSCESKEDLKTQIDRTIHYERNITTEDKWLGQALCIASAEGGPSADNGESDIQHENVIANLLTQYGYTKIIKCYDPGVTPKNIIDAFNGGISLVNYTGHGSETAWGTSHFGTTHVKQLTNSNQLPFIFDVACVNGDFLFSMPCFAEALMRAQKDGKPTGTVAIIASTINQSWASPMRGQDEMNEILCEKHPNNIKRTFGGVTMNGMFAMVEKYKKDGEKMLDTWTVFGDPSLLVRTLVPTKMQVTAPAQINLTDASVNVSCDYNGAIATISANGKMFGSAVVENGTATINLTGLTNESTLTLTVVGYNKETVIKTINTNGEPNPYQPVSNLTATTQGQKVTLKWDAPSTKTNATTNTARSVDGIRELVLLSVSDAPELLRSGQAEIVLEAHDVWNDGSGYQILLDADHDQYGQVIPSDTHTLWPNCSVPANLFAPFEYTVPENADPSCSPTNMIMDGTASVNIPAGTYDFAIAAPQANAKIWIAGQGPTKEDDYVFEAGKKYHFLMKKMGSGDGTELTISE

Row | Binder | OD450 nm [1] | Ratio OD(Variant)/OD(WT) [2]
1 | B1 | 0.771 | 0.967
2 | B2 | 0.796 and 0.833 | 0.94 and 0.983
3 | B3 | 0.769 and 0.814 | 0.908 and 0.961
4 | B4 | 0.799 and 0.844 and 0.805 | 0.943 and 0.996 and 0.95
5 | B5 | 0.788 | 0.93
6 | B6 | 0.757 | 0.894
7 | B7 | 0.769 and 0.739 and 0.77 | 0.965 and 0.927 and 0.966
8 | B8 | 0.688 | 0.812
9 | B9 | 0.769 | 0.965
10 | B10 | 0.779 | 0.92
11 | B11 | 0.809 | 0.955
12 | B12 | 0.776 | 0.974
13 | B13 | 0.846 | 0.999
14 | B14 | 0.639 and 0.698 | 0.802 and 0.876
15 | B15 | 0.756 and 0.783 | 0.893 and 0.924
16 | B16 | 0.817 and 0.736 and 0.789 | 0.965 and 0.869 and 0.932
17 | B17 | 0.801 and 0.791 | 0.946 and 0.934
18 | B18 | 0.823 | 0.972
19 | B19 | 0.757 and 0.784 and 0.699 | 0.894 and 0.926 and 0.825
20 | B20 | 0.74 | 0.928

Source: patent publication US20240400654A1
